Laboratory results published in patent US20240043533A1 (NGM BIOPHARMACEUTICALS, published 2024).
Read-outs that look alike come from different tables or passages of the source.

T1: extracellular domain of cyno ILT3 (cynoILT3-ECD) (cynomolgus monkey)
T1 chain: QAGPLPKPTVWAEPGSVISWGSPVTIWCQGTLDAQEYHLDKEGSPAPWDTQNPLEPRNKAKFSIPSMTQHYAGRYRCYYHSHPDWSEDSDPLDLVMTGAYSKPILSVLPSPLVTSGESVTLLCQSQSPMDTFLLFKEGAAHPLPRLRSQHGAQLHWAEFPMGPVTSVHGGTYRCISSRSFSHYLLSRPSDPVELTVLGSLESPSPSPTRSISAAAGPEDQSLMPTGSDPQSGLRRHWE

T2: cynomolgus ILT3 expressed on cells (THP-1 reporter cells transduced with cyno ILT3); cyno monocyte-derived … (cynomolgus monkey)
T2 chain: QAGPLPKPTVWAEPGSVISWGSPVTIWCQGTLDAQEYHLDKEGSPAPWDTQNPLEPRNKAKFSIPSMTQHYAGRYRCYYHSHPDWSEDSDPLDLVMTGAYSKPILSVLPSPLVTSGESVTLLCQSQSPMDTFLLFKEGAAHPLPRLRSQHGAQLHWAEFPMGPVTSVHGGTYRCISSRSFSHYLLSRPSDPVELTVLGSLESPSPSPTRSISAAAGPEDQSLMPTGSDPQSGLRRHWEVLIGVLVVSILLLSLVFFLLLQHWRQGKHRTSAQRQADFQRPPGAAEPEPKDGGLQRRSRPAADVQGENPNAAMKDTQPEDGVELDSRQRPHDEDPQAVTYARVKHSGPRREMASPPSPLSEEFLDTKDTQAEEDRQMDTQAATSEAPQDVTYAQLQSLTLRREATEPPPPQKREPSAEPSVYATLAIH


Tests used:
[1] = biological target: ILT3 extracellular domain chimeric receptor on NFAT-GFP reporter cells (human); test: cell-based or functional assay
[2] = biological target: T3, extracellular domain of human ILT3 (huILT3-ECD) (human, UniProt Q8NHJ6 22-259); test: SPR (Biacore), antibody captured via anti-Fc on CM5 chip, soluble ILT3-ECD injected, 37 C
T3 construct: also called human ILT3-ECD
Method: (§1) The binding affinities of anti-ILT3 antibodies to human ILT3 and cyno ILT3 were measured using a Biacore system (GE Healthcare LifeSciences). Briefly, anti-Fc antibody (Sigma-Aldrich) was immobilized on all four flow cells of a CM5 chip using amine coupling reagents (GE Healthcare LifeSciences). Antibodies were captured on flow cells 2, 3, and 4 using flow cell 1 as a reference. Concentrations ranging from 3.3-10 nM of human or cyno ILT3-ECD were injected at a flow rate of 50 μL/min at 37° C. Kinetic data were collected over time and fit using the simultaneous global fit equation to yield affinity constants (KD values) for each antibody.
(§2) The binding affinity of Hz5A7.v5 to human ILT3 and cyno ILT3 was determined using a Biacore system as described herein and compared with the binding affinity of the parental chimeric 5A7 (ch5A7) antibody and humanized 5A7 without any CDR modifications (Hz5A7.v1) (see Table 12).

[3] = biological target: T1, extracellular domain of cyno ILT3 …; test: as above
Method: as §1, §2

human LILRA1 = biological target: T4, human LILRA1 (human, UniProt O75019 17-489); test: FACS on cells expressing human LILRA1, labeled anti-mouse Fc secondary antibody
T4 construct: whole, on cells
Method: (§3) ELISA assays were used to screen antibodies against human ILT3 and human LILRA1,2,4-6. […] These antibodies were rescreened by FACS for binding to human ILT3 and cyno ILT3 expressed on HEK-293T cells. The antibodies that bound to both human and cyno ILT3 were selected. This subset of antibodies were screened by FACS against human LILRB1-5 (ILT2, ILT4, ILT5, ILT3, and LILRB5, respectively), cyno LILRB5, and human LILRA1,2,4-6. For FACS screening, each antibody was incubated with cells expressing human ILT3, cyno ILT3, one of the LILRA proteins, or one of the LILRB proteins for 30 minutes at 4° C. After washing, the cells were incubated with labeled anti-mouse Fc antibody for 30 minutes at 4° C. After washing, cells were analyzed on a flow cytometer. Antibodies were selected on the criteria of binding to human ILT3, cyno ILT3, no or limited binding to other LILRB proteins, and no or limited binding to LILRA proteins.

human LILRA4 = biological target: T5, human LILRA4 (human, UniProt P59901 24-499); test: FACS on cells expressing human LILRA4, labeled anti-mouse Fc secondary antibody
T5 construct: whole, on cells
Method: as §3

Cyno LILRB5 = biological target: T6, Cyno LILRB5 (Macaca fascicularis, UniProt A0A2K5VIP6); test: FACS on cells expressing cyno LILRB5, labeled anti-mouse Fc secondary antibody
T6 construct: expressed on the cell surface; also called cynomolgus LILRB5
Method: as §3

LILRB4 = biological target: T7, LILRB4; test: FACS on cells expressing human LILRB4 (ILT3), labeled anti-mouse Fc secondary antibody
T7 construct: the construct expressed on the cells is not described further; also called human ILT3 expressed on cells for the FACS screen; ILT3
Method: as §3

human LILRA5 = biological target: T8, human LILRA5 (human, UniProt A6NI73 42-299); test: FACS on cells expressing human LILRA5, labeled anti-mouse Fc secondary antibody
T8 construct: whole, on cells
Method: as §3

human LILRA2 = biological target: T9, human LILRA2 (human, UniProt Q8N149 24-483); test: FACS on cells expressing human LILRA2, labeled anti-mouse Fc secondary antibody
T9 construct: whole, on cells
Method: as §3

human LILRB2 = biological target: T10, human LILRB2 (human, UniProt Q8N423 22-597); test: FACS on cells expressing human LILRB2, labeled anti-mouse Fc secondary antibody
T10 construct: whole, on cells; also called ILT4
Method: as §3

LILRB3 = biological target: T11, LILRB3 (human, UniProt O75022); test: FACS on cells expressing human LILRB3, labeled anti-mouse Fc secondary antibody
T11 construct: expressed on the cell surface; also called human LILRB3; ILT5
Method: as §3

[4] = biological target: T3, extracellular domain of human ILT3 …; test: SPR (Biacore), antibody captured via anti-Fc on CM5 chip, soluble ILT3-ECD injected, 37 C; remark: listed apart in the source
Method: as §1

[5] = biological target: T1, extracellular domain of cyno ILT3 …; test: as above
Method: as §1

LILRB5 = biological target: T12, LILRB5 (human, UniProt O75023); test: FACS on cells expressing human LILRB5, labeled anti-mouse Fc secondary antibody
T12 construct: expressed on the cell surface; also called human LILRB5; CD85C
Method: as §3

human LILRA6 = biological target: T13, human LILRA6 (human, UniProt Q6PI73 24-447, limits assumed); test: FACS on cells expressing human LILRA6, labeled anti-mouse Fc secondary antibody
T13 construct: Read out of the printed 'LILRA1,2,4-6'
Method: as §3

[6] = biological target: T2, cynomolgus ILT3 expressed on cells …; test: cell-based or functional assay

T8 sequence (A6NI73 42-299): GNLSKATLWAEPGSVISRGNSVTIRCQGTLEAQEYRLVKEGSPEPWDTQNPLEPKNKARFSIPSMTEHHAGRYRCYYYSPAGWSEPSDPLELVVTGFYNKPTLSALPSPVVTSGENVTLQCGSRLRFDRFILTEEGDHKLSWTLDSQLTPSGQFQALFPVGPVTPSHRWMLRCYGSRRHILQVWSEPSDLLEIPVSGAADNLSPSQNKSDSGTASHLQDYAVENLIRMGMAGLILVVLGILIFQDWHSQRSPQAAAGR
T5 sequence (P59901 24-499): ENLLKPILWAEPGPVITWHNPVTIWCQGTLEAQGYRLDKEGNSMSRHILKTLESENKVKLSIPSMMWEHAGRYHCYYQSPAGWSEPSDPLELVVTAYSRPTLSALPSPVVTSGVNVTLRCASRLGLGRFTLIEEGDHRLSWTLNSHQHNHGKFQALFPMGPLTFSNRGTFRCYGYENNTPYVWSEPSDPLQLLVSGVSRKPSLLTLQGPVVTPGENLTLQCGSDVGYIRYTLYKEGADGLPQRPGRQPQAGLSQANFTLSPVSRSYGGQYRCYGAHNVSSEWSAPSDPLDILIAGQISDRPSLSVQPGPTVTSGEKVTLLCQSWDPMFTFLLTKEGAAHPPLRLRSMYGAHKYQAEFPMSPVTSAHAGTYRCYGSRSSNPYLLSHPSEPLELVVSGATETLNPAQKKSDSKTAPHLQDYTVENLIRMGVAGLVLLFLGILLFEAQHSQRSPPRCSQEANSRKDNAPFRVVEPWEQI
T9 sequence (Q8N149 24-483): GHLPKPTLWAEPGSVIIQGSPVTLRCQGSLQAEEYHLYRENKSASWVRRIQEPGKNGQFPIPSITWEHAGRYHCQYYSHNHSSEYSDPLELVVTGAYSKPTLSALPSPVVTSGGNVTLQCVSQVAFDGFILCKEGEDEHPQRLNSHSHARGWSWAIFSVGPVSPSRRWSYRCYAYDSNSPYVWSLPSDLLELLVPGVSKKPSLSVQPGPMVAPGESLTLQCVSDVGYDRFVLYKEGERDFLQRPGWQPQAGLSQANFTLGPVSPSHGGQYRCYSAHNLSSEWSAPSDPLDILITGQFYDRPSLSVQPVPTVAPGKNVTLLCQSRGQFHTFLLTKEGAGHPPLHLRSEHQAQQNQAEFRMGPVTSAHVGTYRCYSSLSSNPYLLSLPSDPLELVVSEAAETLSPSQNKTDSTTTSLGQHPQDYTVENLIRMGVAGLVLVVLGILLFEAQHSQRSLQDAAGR
T7 sequence (receptor, as listed by the source limits assumed): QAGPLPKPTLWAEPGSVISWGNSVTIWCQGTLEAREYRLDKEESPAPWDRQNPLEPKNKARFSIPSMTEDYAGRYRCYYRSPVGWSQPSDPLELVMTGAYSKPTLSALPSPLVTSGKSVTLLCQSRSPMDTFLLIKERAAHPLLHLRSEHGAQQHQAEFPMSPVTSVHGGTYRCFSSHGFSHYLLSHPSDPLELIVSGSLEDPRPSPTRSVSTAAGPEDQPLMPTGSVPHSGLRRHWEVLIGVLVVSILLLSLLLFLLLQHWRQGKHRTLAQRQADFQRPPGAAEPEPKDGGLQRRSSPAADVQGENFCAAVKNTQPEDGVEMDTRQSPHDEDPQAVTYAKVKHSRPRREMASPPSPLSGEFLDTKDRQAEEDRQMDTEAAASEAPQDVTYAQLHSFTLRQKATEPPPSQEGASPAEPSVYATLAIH
T11 sequence (O75022 24-631 limits assumed): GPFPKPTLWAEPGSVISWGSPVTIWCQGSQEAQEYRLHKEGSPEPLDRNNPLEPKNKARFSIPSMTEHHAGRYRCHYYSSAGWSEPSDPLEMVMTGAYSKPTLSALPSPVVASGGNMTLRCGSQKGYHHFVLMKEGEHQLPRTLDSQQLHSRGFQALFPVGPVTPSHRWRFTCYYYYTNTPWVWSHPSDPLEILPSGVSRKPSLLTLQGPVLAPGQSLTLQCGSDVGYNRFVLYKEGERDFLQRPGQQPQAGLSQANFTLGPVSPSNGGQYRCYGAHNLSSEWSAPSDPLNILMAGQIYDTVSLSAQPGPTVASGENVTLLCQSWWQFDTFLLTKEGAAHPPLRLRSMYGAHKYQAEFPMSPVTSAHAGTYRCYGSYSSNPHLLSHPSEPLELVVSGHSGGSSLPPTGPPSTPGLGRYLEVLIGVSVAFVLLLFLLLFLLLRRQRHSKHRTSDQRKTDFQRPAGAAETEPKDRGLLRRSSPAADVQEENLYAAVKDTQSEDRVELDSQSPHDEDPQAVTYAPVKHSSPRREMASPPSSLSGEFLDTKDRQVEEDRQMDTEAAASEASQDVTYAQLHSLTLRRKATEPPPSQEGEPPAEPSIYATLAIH
T13 sequence (Q6PI73 24-447 limits assumed): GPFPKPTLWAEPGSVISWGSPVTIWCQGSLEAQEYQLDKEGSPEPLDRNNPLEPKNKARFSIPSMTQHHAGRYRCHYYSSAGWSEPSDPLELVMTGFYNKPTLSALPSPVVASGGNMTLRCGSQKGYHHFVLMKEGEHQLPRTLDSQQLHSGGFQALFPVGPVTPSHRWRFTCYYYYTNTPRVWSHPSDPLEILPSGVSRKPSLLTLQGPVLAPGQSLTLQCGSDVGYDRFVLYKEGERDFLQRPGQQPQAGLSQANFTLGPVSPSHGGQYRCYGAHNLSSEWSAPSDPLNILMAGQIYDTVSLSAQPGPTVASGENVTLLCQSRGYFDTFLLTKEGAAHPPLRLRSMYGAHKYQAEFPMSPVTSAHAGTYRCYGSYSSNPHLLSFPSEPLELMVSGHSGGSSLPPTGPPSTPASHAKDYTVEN
T6 sequence (A0A2K5VIP6 entry or part of it): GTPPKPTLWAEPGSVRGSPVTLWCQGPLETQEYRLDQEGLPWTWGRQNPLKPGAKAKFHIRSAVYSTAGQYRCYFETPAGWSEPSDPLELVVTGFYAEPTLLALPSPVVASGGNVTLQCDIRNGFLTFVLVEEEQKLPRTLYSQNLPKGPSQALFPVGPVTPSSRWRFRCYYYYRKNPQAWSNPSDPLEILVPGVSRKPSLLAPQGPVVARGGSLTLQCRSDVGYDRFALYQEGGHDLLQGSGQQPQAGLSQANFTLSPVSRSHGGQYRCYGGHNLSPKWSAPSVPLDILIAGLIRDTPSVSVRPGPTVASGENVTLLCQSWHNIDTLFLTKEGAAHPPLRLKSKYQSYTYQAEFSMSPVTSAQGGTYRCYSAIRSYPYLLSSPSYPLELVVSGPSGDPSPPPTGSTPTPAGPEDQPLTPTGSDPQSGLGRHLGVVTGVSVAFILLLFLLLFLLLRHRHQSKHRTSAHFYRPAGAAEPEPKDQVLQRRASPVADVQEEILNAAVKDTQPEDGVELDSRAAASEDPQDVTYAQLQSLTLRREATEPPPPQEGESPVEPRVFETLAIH
T10 sequence (Q8N423 22-597): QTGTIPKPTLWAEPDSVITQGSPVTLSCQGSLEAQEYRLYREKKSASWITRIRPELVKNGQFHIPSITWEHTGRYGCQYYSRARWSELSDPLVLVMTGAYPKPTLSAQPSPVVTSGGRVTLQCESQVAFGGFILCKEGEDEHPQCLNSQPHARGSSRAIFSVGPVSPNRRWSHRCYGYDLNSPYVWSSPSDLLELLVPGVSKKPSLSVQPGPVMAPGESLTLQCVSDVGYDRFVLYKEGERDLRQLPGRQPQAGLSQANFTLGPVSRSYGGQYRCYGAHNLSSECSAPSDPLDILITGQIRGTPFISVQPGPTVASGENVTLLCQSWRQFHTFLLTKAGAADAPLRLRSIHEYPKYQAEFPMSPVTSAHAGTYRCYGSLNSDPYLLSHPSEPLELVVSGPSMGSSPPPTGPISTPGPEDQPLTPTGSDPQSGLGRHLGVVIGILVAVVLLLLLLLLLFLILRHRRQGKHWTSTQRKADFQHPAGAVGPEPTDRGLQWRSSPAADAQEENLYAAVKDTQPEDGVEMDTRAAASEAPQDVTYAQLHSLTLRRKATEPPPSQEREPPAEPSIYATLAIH
T12 sequence (O75023 24-590 limits assumed): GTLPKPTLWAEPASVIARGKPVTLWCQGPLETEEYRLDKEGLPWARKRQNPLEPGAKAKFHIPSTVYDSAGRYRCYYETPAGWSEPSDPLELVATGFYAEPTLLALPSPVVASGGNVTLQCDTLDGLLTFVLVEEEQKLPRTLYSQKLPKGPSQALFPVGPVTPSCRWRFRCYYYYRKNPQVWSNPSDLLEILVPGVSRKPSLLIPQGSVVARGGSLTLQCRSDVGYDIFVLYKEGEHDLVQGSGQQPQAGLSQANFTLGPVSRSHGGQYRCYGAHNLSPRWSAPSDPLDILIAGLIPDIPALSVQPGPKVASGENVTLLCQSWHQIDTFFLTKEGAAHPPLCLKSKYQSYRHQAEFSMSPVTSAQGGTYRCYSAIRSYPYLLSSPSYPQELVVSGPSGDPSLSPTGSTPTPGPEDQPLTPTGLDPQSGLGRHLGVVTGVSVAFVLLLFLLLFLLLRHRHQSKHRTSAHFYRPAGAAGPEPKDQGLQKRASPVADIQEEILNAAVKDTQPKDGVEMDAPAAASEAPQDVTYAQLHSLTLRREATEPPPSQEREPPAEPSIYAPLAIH
T4 sequence (O75019 17-489): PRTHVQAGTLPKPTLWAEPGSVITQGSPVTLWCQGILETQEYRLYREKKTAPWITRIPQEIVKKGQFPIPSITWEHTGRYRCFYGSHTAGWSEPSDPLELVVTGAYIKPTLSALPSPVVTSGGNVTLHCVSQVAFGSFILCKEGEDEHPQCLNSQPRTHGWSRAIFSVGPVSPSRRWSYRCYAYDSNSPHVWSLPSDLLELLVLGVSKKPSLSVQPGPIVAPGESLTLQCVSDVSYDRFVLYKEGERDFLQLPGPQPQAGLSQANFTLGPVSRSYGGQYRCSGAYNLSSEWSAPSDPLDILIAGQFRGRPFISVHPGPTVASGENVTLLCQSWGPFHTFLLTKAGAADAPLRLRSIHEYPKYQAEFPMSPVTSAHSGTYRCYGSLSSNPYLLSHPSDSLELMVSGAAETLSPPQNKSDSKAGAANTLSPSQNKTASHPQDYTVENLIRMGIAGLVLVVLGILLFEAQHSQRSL

Row | Kd [2] | koff [2] | kon [2] | Kd [3] | EC50 (read off the curve) (LILRB4) | Kd [4] | koff [4] | kon [4] | Kd [5] | koff [5] | kon [5] | Binder | binding result (human LILRA1) | binding result (human LILRA4) | binding result (Cyno LILRB5) | binding result (human LILRA5) | binding result (human LILRA2) | binding result (human LILRB2) | binding result (LILRB3) | binding result (LILRB5) | binding result (human LILRA6) | also measured
1 | 570 pM | 0.0017 s⁻¹ | 2.9e+06 M⁻¹ s⁻¹ | 2400 pM | – | – | – | – | – | – | – | anti-ILT3 antibody ch5A7 (parental chimeric 5A7) (antibody, V domains shown) VH: EVKLVESGGGLVKPGGSLKLSCAASGFTFSSYGMSWVRQTPEKRLEWVATISGGGSYTNYPDSVKGRLTISRDNAKKNLYLEMSSLRSEDTALYYCARREWRMTLYAMDYWGQGTSVTVSS VL: NIVLTQSPASLAVSLGQRATISCRASESVDSYGNSFMHWYQQKPGQAPKLLIYLTSNLESGVPARFSGSGSRTDFTLTIDPVEADDAATYYCQQNNEDPFTFGSGTKLEIK | – | – | – | – | – | – | – | – | – | IC50 (read off the curve) [1]: ~10 pM; koff [3]: 0.018 s⁻¹; kon [3]: 7.5e+06 M⁻¹ s⁻¹
2 | 280 pM | 0.00081 s⁻¹ | 2.8e+06 M⁻¹ s⁻¹ | 700 pM | – | – | – | – | – | – | – | anti-ILT3 antibody Hz5A7.v5 (antibody, human IgG1, kappa, N297G, V domains shown, Humanized 5A7 variant) VH: EVQLVESGGGLVQPGGSLRLSCAASGFTFSSYGMSWVRQAPGKGLEWVATISGGGSYTNYPDSVKGRFTISRDNAKNSLYLQMNSLRAEDTAVYYCARREWRYTLYAMDYWGQGTTVTVSS VL: DIQLTQSPSFLSASVGDRVTITCRASESVESYGSSFMHWYQQKPGKAPKLLIYLTSNLESGVPSRFSGSGSGTEFTLTISSLQPEDFATYYCQQNNEDPFTFGQGTKLEIKR | – | – | – | – | – | – | – | – | – | EC50 (read off the curve) [6]: ~200 pM; koff [3]: 0.0071 s⁻¹; kon [3]: 1.1e+07 M⁻¹ s⁻¹

Further lines, the binder ahead of its results:

Row | Binder | Kd [2] | koff [2] | kon [2] | Kd [3] | EC50 (read off the curve) (LILRB4) | Kd [4] | koff [4] | kon [4] | Kd [5] | koff [5] | kon [5] | binding result (human LILRA1) | binding result (human LILRA4) | binding result (Cyno LILRB5) | binding result (human LILRA5) | binding result (human LILRA2) | binding result (human LILRB2) | binding result (LILRB3) | binding result (LILRB5) | binding result (human LILRA6) | also measured
3 | anti-ILT3 antibody 48A6 (antibody, V domains shown, Mouse monoclonal antibody from hybridoma) VH: EVQLVESGGDLMKPGGSLKLSCAASGFTFSSYGMSWVRQTPDKRLEWVATISSGGTYTFYPDSVKGRFTISRDNAKNTLYLQMSSLKSEDTAMYYCARRGWLLHYYAMDYWGQGTSVTVSS VL: NIVLTQSPASLAVSLGQRATISCRPSESVDSFGNSFMHWFQQKPGQPPKLLIYLSSKLESGVPARFSGSGSRTDFTLTIDPVEADDAATYYCQQHNEDPFTFGSGTKLEIK | – | – | – | – | ~200 pM | < 100 pM | 1.8e-07 s⁻¹ | 7e+06 M⁻¹ s⁻¹ | 1700 pM | 0.024 s⁻¹ | 1.4e+07 M⁻¹ s⁻¹ | no binding (tested: log [Ab] about -7.2 M (about 6e-8 M)) | no binding (tested: log [Ab] about -7.2 M (about 6e-8 M)) | no binding (tested: log [Ab] about -7.2 M (about 6e-8 M)) | no binding (tested: log [Ab] about -7.2 M (about 6e-8 M)) | no binding (tested: log [Ab] about -7.2 M (about 6e-8 M)) | no binding (tested: log [Ab] about -7.2 M (about 6e-8 M)) | binds | no binding (tested: log [Ab] about -7.2 M (about 6e-8 M)) | no binding (tested: log [Ab] about -7.2 M (about 6e-8 M)) | –
4 | anti-ILT3 antibody 5A7 (antibody, V domains shown, Mouse monoclonal antibody from hybridoma) VH: EVKLVESGGGLVKPGGSLKLSCAASGFTFSSYGMSWVRQTPEKRLEWVATISGGGSYTNYPDSVKGRLTISRDNAKKNLYLEMSSLRSEDTALYYCARREWRMTLYAMDYWGQGTSVTVSS VL: NIVLTQSPASLAVSLGQRATISCRASESVDSYGNSFMHWYQQKPGQAPKLLIYLTSNLESGVPARFSGSGSRTDFTLTIDPVEADDAATYYCQQNNEDPFTFGSGTKLEIK | – | – | – | – | ~300 pM | 28 pM | 0.00011 s⁻¹ | 3.8e+06 M⁻¹ s⁻¹ | 660 pM | 0.0022 s⁻¹ | 3.3e+06 M⁻¹ s⁻¹ | no binding (tested: log [Ab] about -7.2 M (about 6e-8 M)) | no binding (tested: log [Ab] about -7.2 M (about 6e-8 M)) | no binding (tested: log [Ab] about -7.2 M (about 6e-8 M)) | no binding (tested: log [Ab] about -7.2 M (about 6e-8 M)) | no binding (tested: log [Ab] about -7.2 M (about 6e-8 M)) | no binding (tested: log [Ab] about -7.2 M (about 6e-8 M)) | no binding (tested: log [Ab] about -7.2 M (about 6e-8 M)) | no binding (tested: log [Ab] about -7.2 M (about 6e-8 M)) | no binding (tested: log [Ab] about -7.2 M (about 6e-8 M)) | –
5 | anti-ILT3 antibody 53F10 (antibody, V domains shown, Mouse monoclonal antibody from hybridoma) VH: EVQVVESGGGLVKPGGSLKLSCAASGFTFSDYGMHWVRQAPEKGLEWVAYISTGIITVYYADTVKGRFTMSRDNAKNTLFLQMTSLRSEDTAIYYCARADGRGAMDYWGQGTSVIVSS VL: DIQMTQTTSSLSASLGDRVTISCRASQDISNFLNWYQQKPDGTVTLLIYYTSRLHSGVPSRFSGSGSGTDYSLTISNLEQEDFATYFCQQGNTLPWTFGGGTKLEIK | – | – | – | – | ~400 pM | 240 pM | 8e-05 s⁻¹ | 330000 M⁻¹ s⁻¹ | 9400 pM | 0.0055 s⁻¹ | 590000 M⁻¹ s⁻¹ | no binding (tested: log [Ab] about -7.2 M (about 6e-8 M)) | no binding (tested: log [Ab] about -7.2 M (about 6e-8 M)) | no binding (tested: log [Ab] about -7.2 M (about 6e-8 M)) | no binding (tested: log [Ab] about -7.2 M (about 6e-8 M)) | no binding (tested: log [Ab] about -7.2 M (about 6e-8 M)) | no binding (tested: log [Ab] about -7.2 M (about 6e-8 M)) | no binding (tested: log [Ab] about -7.2 M (about 6e-8 M)) | no binding (tested: log [Ab] about -7.2 M (about 6e-8 M)) | no binding (tested: log [Ab] about -7.2 M (about 6e-8 M)) | –
